# Reference: paper PMC3776414
# Legend:
# [1] = molecular target: Alexa Fluor 555-labeled E11C calmodulin mutant (UniProt P0DP23); experiment: FRET or BRET
# [2] = molecular target: Alexa Fluor 594-modified E11C CaM (UniProt P0DP23); experiment: FRET or BRET
# [3] = molecular target: calmodulin (CaM) cysteine mutant E11C (UniProt P0DP23); experiment: solvatochromic fluorescence
# [4] = molecular target: calmodulin (CaM) cysteine mutant M145C (UniProt P0DP23); experiment: solvatochromic fluorescence
# [5] = molecular target: calmodulin (CaM) cysteine mutant M76C (UniProt P0DP23); experiment: solvatochromic fluorescence
# [6] = molecular target: calmodulin (CaM) cysteine mutant E11C (UniProt P0DP23); experiment: FRET or BRET
FRET fluorescence increase (Ca2+-bound over apo-state) [1] [fold],FRET fluorescence increase at 611 nm [2] [fold],increase of the direct fluorescence emission from 4DMN [2] [fold],4DMN fluorescence increase at 505 nm (Ca2+-bound complex over apo-state) [3] [fold],4DMN fluorescence increase at 505 nm (Ca2+-bound complex over apo-state) [4] [fold],4DMN fluorescence increase at 505 nm (Ca2+-bound complex over apo-state) [5] [fold],increase in the acceptor fluorescence after Ca2+ addition [6] [fold],Substance
23,5.5,114,98,43,180,,"4DMN-labeled M13 peptide (M13, the calmodulin-binding peptide, with the 4DMN amino acid at position 8)"
,,,,,,4.9,"4DMN/Alexa 555-labeled M13 peptide (4DMN at position 8, Alexa Fluor 555 on an N-terminal cysteine)"
